Consider two molecules from article PMC2830067 (Journal of molecular biology, 2009).

This test concerns the target T1, Aquifex aeolicus GatCAB B-subunit (GatB) (Aquifex aeolicus, UniProt O66766 1-478).
T1 sequence (looked up): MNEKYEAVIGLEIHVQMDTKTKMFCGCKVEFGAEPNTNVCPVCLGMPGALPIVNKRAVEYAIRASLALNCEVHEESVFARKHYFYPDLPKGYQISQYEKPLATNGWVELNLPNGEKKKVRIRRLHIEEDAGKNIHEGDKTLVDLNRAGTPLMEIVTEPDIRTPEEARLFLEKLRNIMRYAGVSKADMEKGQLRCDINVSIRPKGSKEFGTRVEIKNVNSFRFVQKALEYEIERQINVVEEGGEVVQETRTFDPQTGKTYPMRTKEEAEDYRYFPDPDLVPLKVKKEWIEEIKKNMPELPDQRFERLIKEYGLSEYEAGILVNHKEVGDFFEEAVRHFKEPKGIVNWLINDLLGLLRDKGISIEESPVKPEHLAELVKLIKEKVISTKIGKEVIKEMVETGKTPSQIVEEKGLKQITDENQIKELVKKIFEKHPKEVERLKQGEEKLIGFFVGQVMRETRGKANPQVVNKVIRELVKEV
As to the kind of experiment: crystal structure.

B1: Aquifex aeolicus GatCAB C-subunit (GatC) (natural protein, UniProt O67904 1-94, looked up)
chain: MVDREWVLKIAKLARLELKEEEIEVFQKQLSDILDFIDQLKELDTENVEPYIQEFEETPMREDEPHPSLDREKALMNAPERKDGFFVVPRVVEV
With B1, the binding result was “binds”.

B2: Aquifex aeolicus GatCAB A-subunit (GatA) (enzyme, UniProt O66610 1-478, looked up)
chain: MLWKKSLSELRELLKRGEVSPKEVVESFYDRYNQTEEKVKAYITPLYGKALKQAESLKERELPLFGIPIAVKDNILVEGEKTTCASKILENFVAPYDATVIERLKKAGALIVGKTNLDEFAMGSSTEYSAFFPTKNPWDLERVPGGSSGGSAASVAVLSAPVSLGSDTGGSIRQPASFCGVIGIKPTYGRVSRYGLVAFASSLDQIGVFGRRTEDVALVLEVISGWDEKDSTSAKVPVPEWSEEVKKEVKGLKIGLPKEFFEYELQPQVKEAFENFIKELEKEGFEIKEVSLPHVKYSIPTYYIIAPSEASSNLARYDGVRYGYRAKEYKDIFEMYARTRDEGFGPEVKRRIMLGTFALSAGYYDAYYLKAQKVRRLITNDFLKAFEEVDVIASPTTPTLPFKFGERLENPIEMYLSDILTVPANLAGLPAISIPIAWKDGLPVGGQLIGKHWDETTLLQISYLWEQKFKHYEKIPLT
modifications: acyl-enzyme intermediate at Ser171 formed with Asn or Gln in the co-crystals
As to B2, the binding result is given as “binds”.
